This passage reports Peak Intensity results from patent publication US20080199851A1.

Several values for one entry are separate records, joined by “and”; a condition that tells them apart may be missing. Equal entries are not always repeated.

The target in experiment [1] is Recombinant H5 hemagglutinin. In words: lateral-flow sandwich, 3C8 line + 3G4-gold, 100 uL buffer, 20 min.
The target in experiment [2] is Recombinant H5 hemagglutinin. In words: lateral-flow sandwich, 3C8 line + 3G4-gold, 80 uL buffer, 25 min.
In experiment [3] the target is Recombinant H5 hemagglutinin. In words: lateral-flow sandwich, 3C8 line + 3G4-gold, 60 uL buffer, 15 min.
For experiment [4], the target named is Recombinant H5 hemagglutinin. Nature of the experiment: lateral-flow sandwich, 3C8 line + 3G4-gold, 50 uL buffer, 25 min.
The target in experiment [5] is Recombinant H5 hemagglutinin. Nature of the experiment: lateral-flow sandwich, 3C8 line + 3G4-gold, 100 uL buffer, 30 min.
The target of experiment [6] is Recombinant H5 hemagglutinin. In words: lateral-flow sandwich, 3C8 line + 3G4-gold, 70 uL buffer, 30 min.
Experiment [7] deals with Recombinant H5 hemagglutinin. In words: lateral-flow sandwich, 3C8 line + 3G4-gold, 50 uL buffer, 20 min.
Experiment [8] concerns the target Recombinant H5 hemagglutinin. Nature of the experiment: lateral-flow sandwich, 3C8 line + 3G4-gold, 50 uL buffer, 30 min.
Experiment [9] addresses Recombinant H5 hemagglutinin. Nature of the experiment: lateral-flow sandwich, 3C8 line + 3G4-gold, 80 uL buffer, 20 min.
In experiment [10] the target is Recombinant H5 hemagglutinin. Nature of the experiment: lateral-flow sandwich, 3C8 line + 3G4-gold, 100 uL buffer, 15 min.
In experiment [11] the target is Recombinant H5 hemagglutinin. Nature of the experiment: lateral-flow sandwich, 3C8 line + 3G4-gold, 70 uL buffer, 15 min.
Experiment [12] has as its target Recombinant H5 hemagglutinin. In words: lateral-flow sandwich, 3C8 line + 3G4-gold, 70 uL buffer, 20 min.
Experiment [13] addresses Recombinant H5 hemagglutinin. In words: lateral-flow sandwich, 3C8 line + 3G4-gold, 100 uL buffer, 25 min.
In experiment [14] the target is Recombinant H5 hemagglutinin. In words: lateral-flow sandwich, 3C8 line + 3G4-gold, 60 uL buffer, 20 min.
The target of experiment [15] is Recombinant H5 hemagglutinin. In words: lateral-flow sandwich, 3C8 line + 3G4-gold, 80 uL buffer, 15 min.
In experiment [16] the target is Recombinant H5 hemagglutinin. Nature of the experiment: lateral-flow sandwich, 3C8 line + 3G4-gold, 60 uL buffer, 15 min. The source holds these as a separate data set.
For experiment [17], the target named is Recombinant H5 hemagglutinin. Nature of the experiment: lateral-flow sandwich, 3C8 line + 3G4-gold, 50 uL buffer, 15 min.
The target of experiment [18] is Recombinant H5 hemagglutinin. Nature of the experiment: lateral-flow sandwich, 3C8 line + 3G4-gold, 70 uL buffer, 25 min.
In experiment [19] the target is Recombinant H5 hemagglutinin. Nature of the experiment: lateral-flow sandwich, 3C8 line + 3G4-gold, 70 uL buffer, 15 min. The source holds these as a separate data set.
Experiment [20] deals with Recombinant H5 hemagglutinin. In words: lateral-flow sandwich, 3C8 line + 3G4-gold, 50 uL buffer, 15 min. The source holds these as a separate data set.
In experiment [21] the target is Recombinant H5 hemagglutinin. Nature of the experiment: lateral-flow sandwich, 3C8 line + 3G4-gold, 60 uL buffer, 30 min.
Experiment [22] concerns the target Recombinant H5 hemagglutinin. In words: lateral-flow sandwich, 3C8 line + 3G4-gold, 80 uL buffer, 30 min.
The target in experiment [23] is Recombinant H5 hemagglutinin. In words: lateral-flow sandwich, 3C8 line + 3G4-gold, 60 uL buffer, 25 min.

B1: monoclonal antibody 3C8 (antibody, V domains shown)
VH: QIQLVQSGPELKKPGETVKISCKASGYSFTNYGMNWVKQAPGKGLKWMGWINTYTGEPAYADDFKGRFAFSLETSASTAYLQINNLKNEDTATYFCARWNRDAMDYWGQGTSVTVSS
VL: DIVLTQSPASLAVSLGQRATISCRASESVDSSDNSLMHWYQQKPGQPPKLLIYRASNLESGIPARFSGSGSRTDFTLTINPVEADDVATYYCQQSIGDPPYTFGGGTKLEIKR
Regarding B1, the Peak Intensity was 49.2 and 44.9 in experiment [1]; 59.8 and 64.7 in [2]; 50.2 and 51.2 in [3]; 63.1 and 55.4 in experiment [4]; 55.6 and 49.8 in [5]; 60.7 and 63.9 in experiment [6]. Besides, the Peak Intensity is 62.3 and 57.3 in experiment [7]; 62.5 and 62.6 in experiment [8]; 53.7 and 57.9 in [9]; 35.2 and 30.8 in experiment [10]; 46.8 and 47.9 in experiment [11]; 57.9 and 57 in [12]. Moreover, the Peak Intensity was 54.6 and 49.3 in experiment [13]; 65.7 and 63.8 in experiment [14]; 39.6 and 42.9 in experiment [15]; 53.5 and 51.6 in experiment [16]; 56.9 and 57.8 in experiment [17]; 60.4 and 61.7 in experiment [18]. For the same molecule, the Peak Intensity in [19] was 45.6 and 42.1; in experiment [20], 55.6 and 51.1; in [21] it was 68.9 and 66.5; in experiment [22], 61.5 and 65.4; in [23], 68.5 and 66.2.
